# What was measured:
# [1] = target: PD-1 (Homo sapiens (Human)) (UniProt Q15116); experiment: flow cytometry, Jurkat/PD-1 cells
# [2] = target: PD-1 (Homo sapiens (Human)) (UniProt Q15116); experiment: flow cytometry, Jurkat/PD-1 cells; vs wildtype PD-L2 IgV-Fc
# Sequence of PD-1 (Homo sapiens (Human)) (Q15116 21-288 limits assumed): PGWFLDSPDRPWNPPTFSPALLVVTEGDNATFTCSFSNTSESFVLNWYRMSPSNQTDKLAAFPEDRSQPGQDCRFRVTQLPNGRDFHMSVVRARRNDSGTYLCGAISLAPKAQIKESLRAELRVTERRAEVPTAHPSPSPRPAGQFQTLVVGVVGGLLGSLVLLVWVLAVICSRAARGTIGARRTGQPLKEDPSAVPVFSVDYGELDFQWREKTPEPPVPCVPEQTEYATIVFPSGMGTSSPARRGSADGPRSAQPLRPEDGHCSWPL
MFI at 50 nM [1],Fold increase over wildtype PD-L2 IgV-Fc [2],Binder
51500,5.23 fold,"variant PD-L2 IgV-Fc E44D, S67L, Q72H, Q82R, V89D (Fc fusion, not shown: a dimerising Fc or GST; small tags and cut ends) FTVTVPKELYIIEHGSNVTLECNFDTGSHVNLGAITASLQKVDNDTSPHRERATLLEEQLPLGKALFHIPHVQVRDEGQYRCIIIYGDAWDYKYLTLK"
54300,5.52 fold,"variant PD-L2 IgV-Fc I13V, H15Q, T47A, H69L, R76G, V89D (Fc fusion, not shown: a dimerising Fc or GST; small tags and cut ends) FTVTVPKELYIVEQGSNVTLECNFDTGSHVNLGAITASLQKVENDASPHRERATLLEEQLPLGKASFLIPQVQVGDEGQYQCIIIYGDAWDYKYLTLK"
65600,6.66 fold,"variant PD-L2 IgV-Fc H15Q, T47A, H69L, Q82R, V89D (Fc fusion, not shown: a dimerising Fc or GST; small tags and cut ends) FTVTVPKELYIIEQGSNVTLECNFDTGSHVNLGAITASLQKVENDASPHRERATLLEEQLPLGKASFLIPQVQVRDEGQYRCIIIYGDAWDYKYLTLK"
59000,5.99 fold,"variant PD-L2 IgV-Fc I13V, S67L, Q82R, V89D (Fc fusion, not shown: a dimerising Fc or GST; small tags and cut ends) FTVTVPKELYIVEHGSNVTLECNFDTGSHVNLGAITASLQKVENDTSPHRERATLLEEQLPLGKALFHIPQVQVRDEGQYRCIIIYGDAWDYKYLTLK"
68000,6.91 fold,"variant PD-L2 IgV-Fc I13V, H15Q, V31A, N45S, Q82R, V89D (Fc fusion, not shown: a dimerising Fc or GST; small tags and cut ends) FTVTVPKELYIVEQGSNVTLECNFDTGSHANLGAITASLQKVESDTSPHRERATLLEEQLPLGKASFHIPQVQVRDEGQYRCIIIYGDAWDYKYLTLK"
28700,2.92 fold,"variant PD-L2 IgV-Fc I13V, H15Q, V89D (Fc fusion, not shown: a dimerising Fc or GST; small tags and cut ends) FTVTVPKELYIVEQGSNVTLECNFDTGSHVNLGAITASLQKVENDTSPHRERATLLEEQLPLGKASFHIPQVQVRDEGQYQCIIIYGDAWDYKYLTLK"

# More lines, now with the values behind:
Binder,MFI at 50 nM [1],Fold increase over wildtype PD-L2 IgV-Fc [2]
"variant PD-L2 IgV-Fc I12V, I13V, H15Q, T47A, Q82R, V89D (Fc fusion, not shown: a dimerising Fc or GST; small tags and cut ends) FTVTVPKELYVVEQGSNVTLECNFDTGSHVNLGAITASLQKVENDASPHRERATLLEEQLPLGKASFHIPQVQVRDEGQYRCIIIYGDAWDYKYLTLK",61200,6.22 fold
"variant PD-L2 IgV-Fc I13V, H15Q, T47A, Q82R (Fc fusion, not shown: a dimerising Fc or GST; small tags and cut ends) FTVTVPKELYIVEQGSNVTLECNFDTGSHVNLGAITASLQKVENDASPHRERATLLEEQLPLGKASFHIPQVQVRDEGQYRCIIIYGVAWDYKYLTLK",89100,9.05 fold
"variant PD-L2 IgV-Fc I13V, H15Q, Q82R, V89D (Fc fusion, not shown: a dimerising Fc or GST; small tags and cut ends) FTVTVPKELYIVEQGSNVTLECNFDTGSHVNLGAITASLQKVENDTSPHRERATLLEEQLPLGKASFHIPQVQVRDEGQYRCIIIYGDAWDYKYLTLK",49500,5.03 fold
"variant PD-L2 IgV-Fc H15Q, T47A (Fc fusion, not shown: a dimerising Fc or GST; small tags and cut ends) FTVTVPKELYIIEQGSNVTLECNFDTGSHVNLGAITASLQKVENDASPHRERATLLEEQLPLGKASFHIPQVQVRDEGQYQCIIIYGVAWDYKYLTLK",26600,2.7 fold
"variant PD-L2 IgV-Fc H15Q, V31M, S67L, Q82R, V89D (Fc fusion, not shown: a dimerising Fc or GST; small tags and cut ends) FTVTVPKELYIIEQGSNVTLECNFDTGSHMNLGAITASLQKVENDTSPHRERATLLEEQLPLGKALFHIPQVQVRDEGQYRCIIIYGDAWDYKYLTLK",67400,6.85 fold
"variant PD-L2 IgV-Fc I13V, H15Q, Q82R (Fc fusion, not shown: a dimerising Fc or GST; small tags and cut ends) FTVTVPKELYIVEQGSNVTLECNFDTGSHVNLGAITASLQKVENDTSPHRERATLLEEQLPLGKASFHIPQVQVRDEGQYRCIIIYGVAWDYKYLTLK",76100,7.74 fold
"variant PD-L2 IgV-Fc H15Q, V89D (Fc fusion, not shown: a dimerising Fc or GST; small tags and cut ends) FTVTVPKELYIIEQGSNVTLECNFDTGSHVNLGAITASLQKVENDTSPHRERATLLEEQLPLGKASFHIPQVQVRDEGQYQCIIIYGDAWDYKYLTLK",17700,1.8 fold
